Data reported in US20220033501A1 (SHANGHAI PHARMAEXPLORER, published 2022).

T1: human TIM-3 on CHOK1 stable cell line (CHOK1-hTIM-3) (human, UniProt Q8TDQ0 22-301)
T1 sequence: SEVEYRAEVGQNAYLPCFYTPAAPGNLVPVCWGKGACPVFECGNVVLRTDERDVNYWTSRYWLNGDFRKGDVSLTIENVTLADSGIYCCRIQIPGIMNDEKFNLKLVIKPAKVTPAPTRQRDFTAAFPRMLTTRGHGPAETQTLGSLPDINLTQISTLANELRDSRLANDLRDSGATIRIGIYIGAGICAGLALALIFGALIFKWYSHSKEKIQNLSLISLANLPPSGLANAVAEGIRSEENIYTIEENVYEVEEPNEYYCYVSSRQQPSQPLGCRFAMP

T2: murine TIM-3 extracellular domain protein with hFc tag (mTIM-3-hFc) (mouse, UniProt Q8VIM0 29-191)
T2 construct: also called mouse TIM-3 extracellular domain protein; not shown: human IgG Fc fragment (hFc) of the pCpC vector
T2 chain: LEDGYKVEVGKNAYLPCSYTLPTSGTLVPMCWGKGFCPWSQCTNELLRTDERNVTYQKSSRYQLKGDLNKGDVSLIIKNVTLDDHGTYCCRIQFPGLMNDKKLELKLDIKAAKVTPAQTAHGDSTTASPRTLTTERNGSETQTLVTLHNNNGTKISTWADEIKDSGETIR

T3: human TIM-3 extracellular domain protein with hFc tag (hTIM-3-hFc) (human, UniProt Q8TDQ0 22-200)
T3 construct: not shown: human IgG Fc fragment (hFc) of the pCpC vector
T3 sequence: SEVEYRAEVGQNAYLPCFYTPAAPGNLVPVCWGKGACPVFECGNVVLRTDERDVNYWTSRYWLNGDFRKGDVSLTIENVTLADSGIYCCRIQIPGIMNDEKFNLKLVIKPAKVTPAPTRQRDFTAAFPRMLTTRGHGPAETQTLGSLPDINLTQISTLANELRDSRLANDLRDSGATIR

T4: monkey TIM-3 extracellular domain protein with hFc tag (cTIM-3-hFc) (monkey)
T4 construct: not shown: human IgG Fc fragment (hFc) of the pCpC vector
T4 chain: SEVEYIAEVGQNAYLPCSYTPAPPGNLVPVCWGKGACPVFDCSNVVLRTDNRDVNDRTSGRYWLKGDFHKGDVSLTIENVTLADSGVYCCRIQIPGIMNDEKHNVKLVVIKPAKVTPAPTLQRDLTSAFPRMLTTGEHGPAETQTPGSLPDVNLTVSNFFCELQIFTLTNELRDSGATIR

T5: human TIM-3 protein with hFc tag (hTIM-3-hFc protein) (human, UniProt Q8TDQ0 22-200)
T5 construct: also called immunogen 1; human TIM-3 extracellular domain protein; not shown: human IgG Fc fragment (hFc) of the pCpC vector
T5 sequence: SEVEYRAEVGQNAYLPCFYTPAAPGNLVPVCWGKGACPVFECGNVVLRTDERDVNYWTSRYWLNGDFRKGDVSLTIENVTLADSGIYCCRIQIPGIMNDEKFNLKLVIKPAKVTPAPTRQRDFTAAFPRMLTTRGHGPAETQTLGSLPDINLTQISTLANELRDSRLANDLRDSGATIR

T6: monkey TIM-3 protein with hFc tag (cTIM-3-hFc protein) (monkey; human)
T6 construct: Made in HEK293 cells; also called monkey TIM-3 extracellular domain protein; not shown: human IgG Fc fragment (hFc) of the pCpC vector
T6 chain: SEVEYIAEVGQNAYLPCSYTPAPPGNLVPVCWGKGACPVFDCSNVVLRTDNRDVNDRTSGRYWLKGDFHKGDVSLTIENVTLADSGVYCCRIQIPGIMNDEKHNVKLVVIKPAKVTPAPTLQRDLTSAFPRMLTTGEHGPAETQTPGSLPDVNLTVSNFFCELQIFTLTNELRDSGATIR


Assays:
[1] = target: T1, human TIM-3 on CHOK1 stable cell line …; test: FACS, CHOK1-hTIM-3 cells, 0.064 nM antibody
[2] = target: T2, murine TIM-3 extracellular domain …; test: ELISA, coated mouse TIM-3 ECD protein, 0 nM antibody
[3] = target: T3, human TIM-3 extracellular domain …; test: ELISA, coated human TIM-3 ECD protein, 0.0007 nM antibody
[4] = target: T2, murine TIM-3 extracellular domain …; test: ELISA, coated mouse TIM-3 ECD protein, 0.0067 nM antibody
[5] = target: T2, murine TIM-3 extracellular domain …; test: ELISA, coated mouse TIM-3 ECD protein, 0.0667 nM antibody
[6] = target: T4, monkey TIM-3 extracellular domain …; test: ELISA, coated monkey TIM-3 ECD protein, 0.0667 nM antibody
[7] = target: T5, human TIM-3 protein with hFc tag …; test: ELISA, coated hTIM-3-hFc; antibody 0.0007 nM
Excerpt: (§1) The amino acid sequence 22-200 of the extracellular domain of the human TIM-3 protein described in the step of Example 1 (as shown in SEQ ID NO. 71 in the sequence listing) was cloned into a pCpC vector having a human IgG Fc fragment (hFc), and transfected into HEK293 cells. The cell culture medium was collected, and purified to obtain the human TIM-3 protein with hFc tag (herein referred to as hTIM-3-hFc protein). The amino acid sequence 22-201 of the extracellular domain of the monkey TIM-3 protein (as shown in SEQ ID NO. 72 in the sequence listing) was cloned into a pCpC vector having a human IgG Fc fragment (hFc), and transfected into HEK293 cells. The cell culture medium was collected, and purified to obtain the monkey TIM-3 protein with hFc tag (herein referred to as cTIM-3-hFc protein). […] The cell culture medium was collected, and purified to obtain the murine TIM-3 protein with hFc tag (herein referred to as mTIM-3-hFc protein). Purified human, monkey, and mouse TIM-3 extracellular domain proteins (hTIM-3-hFc, cTIM-3-hFc, and mTIM-3-hFc) were diluted with PBS to a final concentration of 1.0 μg/ml and then added to a 96-well ELISA plate with 100 μl per well. The plate was sealed with plastic film and incubated overnight at 4° C. The plate was washed 4 times with the plate washing solution (PBS+0.01% Tween20) on the next day, and added with the blocking solution (PBS+0.01% Tween20+1% BSA) and sealed at room temperature for 1-2 hours. The blocking solution was poured out. 50-100 μl of the antibody sample to be tested was added to each well. The plate was incubated at 37° C. for 1-2 hours, and washed 2-3 times with plate washing solution (PBS+0. 01% Tween20). HRP (horseradish peroxidase) labeled secondary antibody was added. The plate was incubated at 37° C. for 1-2 hours, and washed 2-3 times with plate washing solution (PBS+0. 01% Tween20). […] of TMB substrate was added to each well. After incubated at room temperature for 15-30 minutes, the plate was added with […] stop solution (1.0N HCl) to each well. An ELISA plate reader (TiterMax 384plus, Molecular Device) was used to read the A450 nm value.

[8] = target: T5, human TIM-3 protein with hFc tag …; test: ELISA, coated hTIM-3-hFc; antibody 6.6667 nM
Excerpt: as §1

[9] = target: T5, human TIM-3 protein with hFc tag …; test: ELISA, coated hTIM-3-hFc; antibody 66.667 nM
Excerpt: as §1

[10] = target: T6, monkey TIM-3 protein with hFc tag …; test: ELISA, coated cTIM-3-hFc; antibody 0.0067 nM
Excerpt: as §1

[11] = target: T6, monkey TIM-3 protein with hFc tag …; test: ELISA, coated cTIM-3-hFc; antibody 6.6667 nM
Excerpt: as §1

Row | Mean fluorescence intensity [1] | OD450 [2] | OD450 [3] | OD450 [4] | OD450 [5] | OD450 [6] | OD450 [7] | OD450 [8] | OD450 [9] | OD450 [10] | OD450 [11] | Binder
1 | 23.7 | 0.24 | 0.11 | 0.23 | 0.33 | 1.34 | – | – | – | – | – | 57F4E5 fully human TIM-3 antibody (human IgG4, kappa) (antibody, V domains shown) VH: EVQLVESGGGLVQPGGSLRLSCAASGFTFSSYWMSWVRQAPGKGLEWVANIKQDGSEKYYVDSVKGRFTISRDSAKNSLYLQMNSLRAEDTAMYFCARDSNFFDYWGQGTLVTVSS VL: ETVMTQSPATLSVSPGERATLSCRASQSVSSNLAWYQRKPGQAPRLLIYFSSTRATGIPARFSGSGSGTEFTLTISSLQSEDFAVYYCQQYNNWPLTFGGGTKVEIK
2 | – | – | – | – | – | – | 0.12 | 2.86 | 2.93 | 0.62 | 3.34 | 18D2H2 (TIM-3 antibody purified from hybridoma, chimeric antibody of Example 2) (antibody, V domains shown, From hybridoma of Harbour H2L2 transgenic mice: human variable regions, rat constant regions) VH: EVQLVESGGDLVQPGGSLRLSCAASGFTFSTYWMTWVRQAPGRGLEWVANIKQDGSAKYYVDSVKGRFTLSRDDAKNSLYLQMNSLRAEDTAVYYCARGSNWFDYWGQGTLVTVSS VL: ETVMTQSPATLSVSPGERATLSCRANQNVYSNLAWYQQKPGQAPRLLIYDASTRATGFPARFSGSGSGTEFTLTISSLQSEDFAVYYCQQYNNWPLTFGGGTKVEIK
3 | – | – | – | – | – | – | 0.13 | 2.57 | 3.15 | 0.56 | 3.02 | 134H3G6 (TIM-3 antibody purified from hybridoma, chimeric antibody of Example 2) (antibody, V domains shown, From hybridoma of Harbour H2L2 transgenic mice: human variable regions, rat constant regions) VH: EVQLVESGGGLVQPGGSLRLSCAASGFTFSNSWMTWVRQAPGKGLEWVANIKQAGTEKYYVDSVKGRFTISRDNAKNSLYLQMNSLRAEDTAVYYCNSGSNYFDYWGQGTLVTVSS VL: EIVMTQSPATLSVSPGERATLSCRARQNFYSNLAWYQQKPGQAPRLLIYGASTRATGIPARFSGSGSGTEFTLTISSLQSEDFAVYYCQQYNNWPLTFGGGTKVEIK
4 | – | – | – | – | – | – | 0.12 | 2.92 | 3.08 | 0.57 | 3.12 | 7A4F10 (TIM-3 antibody purified from hybridoma, chimeric antibody of Example 2) (antibody, V domains shown, From hybridoma of Harbour H2L2 transgenic mice: human variable regions, rat constant regions) VH: EVQLLESGGGLVQPGGSLRLSCAASGFTFRTHLISWVRQAPGKGLEWVAAITGSGGSTYYADSVKGRFIISRDNSKNTLFLQMNSLRAEDTAVYYCAKDGGSGSYDDFWGQGTLVTVSS VL: ETVLTQSPVTLSLSPGERATLSCRASQSVGSYLAWYQQKPGQAPRLLIYDASNRATGIPARFSGSGSGTDFTLTISSLEPEDFAVYYCQQRSNWPPTFGQGTKVEIK

More lines, now with the values behind:

Row | Binder | Mean fluorescence intensity [1] | OD450 [2] | OD450 [3] | OD450 [4] | OD450 [5] | OD450 [6] | OD450 [7] | OD450 [8] | OD450 [9] | OD450 [10] | OD450 [11]
5 | 39E5H1 (TIM-3 antibody purified from hybridoma, chimeric antibody of Example 2) (antibody, V domains shown, From hybridoma of Harbour H2L2 transgenic mice: human variable regions, rat constant regions) VH: EVQLVESGGGLVQPGGSLRLSCAASGFTFSSYWMSWVRQAPGKGLEWVANIKRGGSERYYVDSVKGRFTISGDNAKNSVYLQMNSLRAEDTAVYYCARGSNWFDPWGQGTLVTVSS VL: ETVMTQSPAILSVSPGERATLSCRASQSVYSNLAWYQQKLGQAPRLLIYDASTRATGIPARFSGSGSGTEFTLTISSLQSEDFAVYYCQQYNNWPITFGQGTRLEIK | – | – | – | – | – | – | 0.16 | 3.34 | 3.39 | 0.85 | 3.5
6 | 57F4E5 (TIM-3 antibody purified from hybridoma, chimeric antibody of Example 2) (antibody, V domains shown, From hybridoma of Harbour H2L2 transgenic mice: human variable regions, rat constant regions) VH: EVQLVESGGGLVQPGGSLRLSCAASGFTFSSYWMSWVRQAPGKGLEWVANIKQDGSEKYYVDSVKGRFTISRDSAKNSLYLQMNSLRAEDTAMYFCARDSNFFDYWGQGTLVTVSS VL: ETVMTQSPATLSVSPGERATLSCRASQSVSSNLAWYQRKPGQAPRLLIYFSSTRATGIPARFSGSGSGTEFTLTISSLQSEDFAVYYCQQYNNWPLTFGGGTKVEIK | – | – | – | – | – | – | 0.19 | 3.29 | 3.26 | 1.13 | 3.48
7 | 134H3G6 fully human TIM-3 antibody (human IgG4, kappa) (antibody, V domains shown) VH: EVQLVESGGGLVQPGGSLRLSCAASGFTFSNSWMTWVRQAPGKGLEWVANIKQAGTEKYYVDSVKGRFTISRDNAKNSLYLQMNSLRAEDTAVYYCNSGSNYFDYWGQGTLVTVSS VL: EIVMTQSPATLSVSPGERATLSCRARQNFYSNLAWYQQKPGQAPRLLIYGASTRATGIPARFSGSGSGTEFTLTISSLQSEDFAVYYCQQYNNWPLTFGGGTKVEIK | 34.5 | 0.22 | 0.1 | 0.22 | 0.21 | 1.3 | – | – | – | – | –
8 | 215A8F2 fully human TIM-3 antibody (human IgG4, kappa) (antibody, V domains shown) VH: QVQLQQWGAGLLKPSETLSLTCTVYGGSFSGYYWNWIRQPPGKGLEWLGEINHSGSTNYNPSLKRRVTISVDTSKNQFSLKLSSVTAADTAVYYCARVYYYGPFDFWGQGTLVTVSS VL: not shown | 20.5 | 0.21 | 0.1 | 0.22 | 0.31 | 1.37 | – | – | – | – | –
9 | 215A8F2 (TIM-3 antibody purified from hybridoma, chimeric antibody of Example 2) (antibody, V domains shown, From hybridoma of Harbour H2L2 transgenic mice: human variable regions, rat constant regions) VH: QVQLQQWGAGLLKPSETLSLTCTVYGGSFSGYYWNWIRQPPGKGLEWLGEINHSGSTNYNPSLKRRVTISVDTSKNQFSLKLSSVTAADTAVYYCARVYYYGPFDFWGQGTLVTVSS VL: not shown | – | – | – | – | – | – | 0.14 | 3.15 | 3.17 | 0.7 | 3.45
10 | 34B6D8 (TIM-3 antibody purified from hybridoma, chimeric antibody of Example 2) (antibody, V domains shown, From hybridoma of Harbour H2L2 transgenic mice: human variable regions, rat constant regions) VH: EVQLVESGGGLVQPGGSLRLSCAASGFTFSTYWMTWVRQAPGKRLEWVANIKQGGGDKYYVDSVKGRFTISTDNAKNSLYLQMNSLRAEDTAVYYCARGSNWFDPWGQGTLVTVSS VL: EIVMTQSPATLSMSPGERATLSCRASQSVYDNLAWYQQKPGQAPRLLIYGASTRATGIPARFSGSGSGTEFTLTISSLQSEDFALYYCQQYTHWPITFGQGTRLEIK | – | – | – | – | – | – | 0.15 | 3.4 | 3.42 | 0.78 | 3.55
